Data from paper PMC8546571, “Methylation of PhoP by CheR Regulates Salmonella Virulence” (mBio, 2021).
Numbering of substitutions follows the chain as printed. In names and notes the source's numbering stands.

B1: wild-type PhoP (6×His-tagged, recombinant) (natural protein)
chain: MMRVLVVEDNALLRHHLKVQLQDSGHQVDAAEDAREADYYLNEHLPDIAIVDLGLPDEDGLSLIRRWRSSDVSLPVLVLTAREGWQDKVEVLSSGADDYVTKPFHIEEVMARMQALMRRNSGLASQVINIPPFQVDLSRRELSVNEEVIKLTAFEYTIMETLIRNNGKVVSKDSLMLQLYPDAELRESHTIDVLMGRLRKKIQAQYPHDVITTVRGQGYLFELR
notes: PhoP, response regulator of the PhoP/PhoQ two-component system, S. Typhimurium strain 14028S; phoP PCR amplified from genomic DNA and cloned into pQE80; also called PhoP WT; source: E. coli BL21, purified (Ni-NTA); not shown: His6, C-terminal, kept
B2: PhoP E8A variant (natural protein)
chain: B1 chain with E8A
notes: PhoP, S. Typhimurium strain 14028S, with E8A; source: E. coli BL21, purified (Ni-NTA); not shown: His6, C-terminal, kept
B3: PhoP D9A variant (natural protein)
chain: B1 chain with D9A
notes: PhoP, S. Typhimurium strain 14028S, with D9A; source: E. coli BL21, purified (Ni-NTA); not shown: His6, C-terminal, kept
B4: PhoP E107A variant (natural protein)
chain: B1 chain with E107A
notes: PhoP, S. Typhimurium strain 14028S, with E107A; source: E. coli BL21, purified (Ni-NTA); not shown: His6, C-terminal, kept
B5: PhoP purified from the bacteria with an endogenous level of cheR expression (natural protein)
chain: B1 chain
notes: PhoP, S. Typhimurium strain 14028S, His-tagged and purified from Salmonella; also called PhoP from control cells; PhoP isolated from the wild-type strain; source: S. Typhimurium with an endogenous level of cheR expression, purified (His tag); not shown: His6, C-terminal, kept

How the values were obtained:
[1] = test system: PhoP from control Salmonella cells (Salmonella enterica serovar Typhimurium 14028S); assay: ITC; settings: EMSA: 25 mM Tris-HCl pH 8.0, 50 mM KCl, 5 mM MgCl2, 0.5 mM EDTA, 10% glycerol, room temp 20 min, 1.6 pmol probe in 10 ul; ITC: 6.15 uM DNA into 0.6 uM PhoP …
[2] = test system: PhoP from cheR-overexpressing cells (methylated PhoP) (Salmonella enterica serovar Typhimurium 14028S); assay: ITC; settings: EMSA: 25 mM Tris-HCl pH 8.0, 50 mM KCl, 5 mM MgCl2, 0.5 mM EDTA, 10% glycerol, room temp 20 min, 1.6 pmol probe in 10 ul; ITC: 6.15 uM DNA into 0.6 uM PhoP …
[3] = target: the molecule itself; assay: cross-linking; purified His-tagged PhoP incubated with 1 mM DSS in 50 mM HEPES-Na pH 7.5, 150 mM NaCl, 10 mM MgCl2, 20% glycerol, 0.05% Tween 20, 25°C, 30 min; Western blot with anti-His antibody; monomer to dimer

Row | Molecule | Kd [1] [pM] | Kd [2] [pM] | binding result [3]
1 | phoP promoter DNA / PhoP box consensus (ITC) | 122 | 476 | –
2 | B1 | – | – | binds
3 | B2 | – | – | binds
4 | B3 | – | – | binds
5 | B4 | – | – | binds
6 | B5 | – | – | binds
